Where two headings read alike, the source gives them in different places. One block for each substance: values may come before it.
Key:
[1] = target: biotinylated L^d–QL9 complex (immobilised on the chip) (UniProt Q60597); test: SPR
[2] = target: QL9/L^d complex on the surface of T2-L^d cells (UniProt Q60597); test: radioligand binding
[3] = target: 2C scTCR 102/55 double mutant (αS102A, βT55A) (mouse); test: SPR
[4] = target: 2C single-chain TCR (scTCR), wild-type, thioredoxin fusion (mouse); test: SPR
[5] = target: 2C scTCR 102/55 double mutant (αS102A, βT55A) (mouse); test: SPR; remark: listed apart in the source

Substance: 2C scTCR 102/56 double mutant (αS102A, βE56A)
ΔΔG against wild-type [2]: -0.32 kcal/mol

Substance: 2C scTCR αS51P mutant (Vα3.2-like)
fold reduced against wild-type (IC50 ratio) [2]: 15 fold

Substance: 2C scTCR βE56A mutant
ΔΔG against wild-type [2]: -0.11 kcal/mol

Substance: 2C scTCR βE56K mutant
ΔΔG against wild-type [2]: 1.06 kcal/mol

Substance: purified soluble L^d–QL9 complex (from UniProt Q60597 41-1023) (peptide-MHC)
Kd [3]: 1200 nM | Kd [4]: 1900 nM | Kd [5]: 2400 nM | koff of wild-type over koff of 102/55 (fold faster) [5]: 3.2 fold | kon of wild-type over kon of 102/55 (fold faster) [5]: 2.4 fold

Other lines, results leading:

Kd [1]: 700 nM | fold better than wild-type (IC50 ratio) [2]: 2.3 fold
Substance: 2C scTCR 102/55 double mutant (αS102A, βT55A)

ΔΔG against wild-type [2]: -0.31 kcal/mol
Substance: 2C scTCR αS102A mutant

ΔΔG against wild-type [2]: -0.23 kcal/mol
Substance: 2C scTCR βT55A mutant

Kd [1]: 1900 nM
Substance: 2C single-chain TCR (scTCR), wild-type, thioredoxin fusion

Reference: paper PMC2192906
